According to patent publication US20200123267A1 (Genentech, published 2020):
Positions count from the first letter of the chain named. Names and notes keep the numbering of the source.

B1: anti-TfR^2/BACE1 bispecific antibody (15G11.W92A arm, human IgG1 D265A N297G, knob in hole) (bispecific antibody, part only; not given: Anti-BACE1 arm and constant regions, V domains shown, not shown: another chain or arm of the molecule; a dimerising Fc or GST; small tags and cut ends)
VH: EVQLVQSGAEVKKPGASVKVSCKASGYTFTSYWMHWVRQAPGQRLEWIGEINPTNGRTNYIEKFKSRATLTVDKSASTAYMELSSLRSEDTAVYYCARGTRAYHYWGQGTMVTVSS
VL: DIQMTQSPSSLSASVGDRVTITCRASDNLYSNLAWYQQKPGKSPKLLVYDATNLADGVPSRFSGSGSGTDYTLTISSLQPEDFATYYCQHFAGTPLTFGQGTKVEIK
B2: anti-TfR^1/BACE1 bispecific antibody (15G11.v5 arm, human IgG1 D265A N297G, knob in hole) (bispecific antibody, part only; not given: Anti-BACE1 arm and constant regions, V domains shown, not shown: another chain or arm of the molecule; a dimerising Fc or GST; small tags and cut ends)
VH: B1 VH
VL: B1 VL with A92W
B3: Hu15G11.HC52A Fab (Fab, V domains shown)
VH: B1 VH with N52A
VL: B1 VL with A92W
notes: Fab; also called antiTfR.52A.Fab; 15G11.52A Fab
B4: antiTfR.52A.M108L.Fab (Fab, V domains shown)
VH: B1 VH with N52A, M111L
VL: B1 VL with A92W
notes: Fab; also called anti-TfR Fab comprising the M108L mutation

Legend:
[1] = target: Human TfR extracellular domain containing an N-terminal His tag (human) (UniProt P02786); experiment: SPR, monovalent, TfR captured via anti-His, bispecific injected
Sequence of Human TfR extracellular domain containing an N-terminal His tag (human) (P02786 89-760 G142S): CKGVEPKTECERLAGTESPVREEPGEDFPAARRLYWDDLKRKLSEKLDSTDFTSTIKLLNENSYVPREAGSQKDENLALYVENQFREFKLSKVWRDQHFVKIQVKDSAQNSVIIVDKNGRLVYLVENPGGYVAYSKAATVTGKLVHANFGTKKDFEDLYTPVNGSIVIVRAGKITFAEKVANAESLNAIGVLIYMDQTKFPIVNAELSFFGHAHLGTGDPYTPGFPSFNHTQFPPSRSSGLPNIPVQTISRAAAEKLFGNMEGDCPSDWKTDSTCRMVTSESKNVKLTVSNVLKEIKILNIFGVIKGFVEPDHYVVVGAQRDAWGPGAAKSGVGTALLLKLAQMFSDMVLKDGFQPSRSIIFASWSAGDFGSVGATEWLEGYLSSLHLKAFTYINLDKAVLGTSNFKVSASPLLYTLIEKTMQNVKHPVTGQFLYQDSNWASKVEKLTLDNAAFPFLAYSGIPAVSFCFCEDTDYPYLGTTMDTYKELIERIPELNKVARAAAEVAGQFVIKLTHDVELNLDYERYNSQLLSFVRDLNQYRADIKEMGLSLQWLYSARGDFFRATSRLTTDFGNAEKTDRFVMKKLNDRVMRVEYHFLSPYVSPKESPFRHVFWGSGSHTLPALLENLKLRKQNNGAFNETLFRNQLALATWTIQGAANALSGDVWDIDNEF

[2] = target: Human TfR extracellular domain containing an N-terminal His tag (human) (UniProt P02786); experiment: SPR, bispecific antibody
[3] = target: T1, TfR (species and construct not stated, Table 13) (Homo sapiens (Human), UniProt P02786 89-760); experiment: kinetic measurement, method not stated
T1 construct: not shown: N-terminal His tag of the soluble TfR ecd construct
T1 sequence (P02786 89-760 G142S limits assumed): as the sequence (P02786 89-760 G142S) above

Binder | Kd [1] | koff [1] | kon [1] | Kd [2] | koff [3] | kon [3]
B1 | 295 nM | 0.0377 s⁻¹ | 128000 M⁻¹ s⁻¹ | 270 nM |  | 
B2 |  |  |  | 10 nM |  | 
B3 |  |  |  |  | 0.0204 s⁻¹ | 371000 M⁻¹ s⁻¹
B4 |  |  |  |  | 0.0231 s⁻¹ | 320000 M⁻¹ s⁻¹
